From publication doi:10.1101/787119 (bioRxiv, 2019)

Target: the molecule itself
Test: SEC-MALS

B1: Full-length human dehydrodolichyl diphosphate synthase (DHDDS) (enzyme, UniProt Q86SQ9 1-333, looked up)
chain: MSWIKEGELSLWERFCANIIKAGPMPKHIAFIMDGNRRYAKKCQVERQEGHSQGFNKLAETLRWCLNLGILEVTVYAFSIENFKRSKSEVDGLMDLARQKFSRLMEEKEKLQKHGVCIRVLGDLHLLPLDLQELIAQAVQATKNYNKCFLNVCFAYTSRHEISNAVREMAWGVEQGLLDPSDISESLLDKCLYTNRSPHPDILIRTSGEVRLSDFLLWQTSHSCLVFQPVLWPEYTFWNLFEAILQFQMNHSVLQKARDMYAEERKRQQLERDQATVTEQLLREGLQASGDAQLRRTRLHKLSARREERVQGFLQALELKRADWLARLGTASA
  stoichiometry N: 2
